± gives the standard error. Fewer inactive variants are shown than the library holds.
B1: glmS ribozyme (parent)
chain: AUAAAAGCGCCAGAACUACAGAAAUGUAGUUGACGAGGAGGAGGUUUAUCGAAUUUUCGGCGGAUGCCUCCAAA

Key:
Conditions in all cases: with glucosamine-6-phosphate
glucosamine-6-phosphate [1] = variants of: B1; experiment: self-cleavage kobs at 40 uM GlcN6P; higher = faster cleavage; RNA array
In short: (§1)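 Glucosamine-6-phosphate, from 40 μM to 10 mM in HEPES/KCl/Mg(OAc)2 buffer, was flowed over sequenced MiSeq chips carrying barcoded ribozyme variants transcribed in situ by E. coli RNA polymerase. A hybridised Cy3 probe tracked the variants at 37 °C as tiles were imaged over ~14 h. kobs, kcat and KM were obtained by fitting normalised per-tile medians to exponential decays and then applying weighted Michaelis–Menten fits across concentrations.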

glucosamine-6-phosphate [2] = variants of: B1; experiment: self-cleavage kobs at 160 uM GlcN6P; higher = faster cleavage; RNA array
In short: as §1

glucosamine-6-phosphate [3] = variants of: B1; experiment: self-cleavage kobs at 640 uM GlcN6P; higher = faster cleavage; RNA array
In short: as §1

glucosamine-6-phosphate [4] = variants of: B1; experiment: self-cleavage kobs at 2500 uM GlcN6P; higher = faster cleavage; RNA array
In short: as §1

glucosamine-6-phosphate [5] = variants of: B1; experiment: self-cleavage kobs at 10000 uM GlcN6P; higher = faster cleavage; RNA array
In short: as §1

Row | Variant | self-cleavage kobs at 40 uM GlcN6P (glucosamine-6-phosphate [1]) [s⁻¹] | self-cleavage kobs at 160 uM GlcN6P (glucosamine-6-phosphate [2]) [s⁻¹] | self-cleavage kobs at 640 uM GlcN6P (glucosamine-6-phosphate [3]) [s⁻¹] | self-cleavage kobs at 2500 uM GlcN6P (glucosamine-6-phosphate [4]) [s⁻¹] | self-cleavage kobs at 10000 uM GlcN6P (glucosamine-6-phosphate [5]) [s⁻¹]
1 | G41C C70G | 0.0028 ± 0.00025 | 0.00588 ± 0.00089 | 0.023 ± 0.0035 | 0.0672 ± 0.025 | 
2 | A42U G44U | < 1e-05 | < 1e-05 | < 1e-05 | < 1e-05 | 
3 | A42U G44A | < 1e-05 | < 1e-05 | < 1e-05 | < 1e-05 | 
4 | G41C C50A G63U C67A | < 1e-05 |  |  |  | < 1e-05
5 | G41C U45A U57A C61G | < 1e-05 |  |  |  | < 1e-05
6 | A42U G62C | < 1e-05 |  | < 1e-05 |  | < 1e-05
7 | G43A C61U C71A | < 1e-05 |  |  |  | 
8 | G43A G51C G63A C68U | < 1e-05 |  |  |  | 
9 | G43C A64U | < 1e-05 | < 1e-05 |  | < 1e-05 | < 1e-05
10 | G43C A64G | < 1e-05 | < 1e-05 | < 1e-05 | < 1e-05 | < 1e-05
11 | G41U U46A U49C C71G | < 1e-05 |  |  |  | 
12 | U46C A53C U55A U56G G62C | < 1e-05 |  |  |  | 
13 | U45G U54C G63C A64U U65G | < 1e-05 |  |  |  | 
14 | U45A C68A | < 1e-05 | < 1e-05 | < 1e-05 | 3.91e-05 ± 1.9e-05 | 
15 | A42C G62C | < 1e-05 | < 1e-05 |  |  | < 1e-05
16 | G43U A52U | < 1e-05 | < 1e-05 |  |  | 
17 | G44A G59U C71A | < 1e-05 | < 1e-05 | < 1e-05 | < 1e-05 | < 1e-05
18 | G43U U54A | < 1e-05 |  |  |  | 6.37e-05 ± 2e-05
19 | U46C C61U | < 1e-05 | < 1e-05 | < 1e-05 | < 1e-05 | 
20 | A42G C50A A64G C70G | < 1e-05 |  |  |  | 
21 | A42U U56C G60U | < 1e-05 |  |  |  | 

Row | Variant | self-cleavage kobs at 40 uM GlcN6P (glucosamine-6-phosphate [1]) [s⁻¹] | self-cleavage kobs at 160 uM GlcN6P (glucosamine-6-phosphate [2]) [s⁻¹] | self-cleavage kobs at 640 uM GlcN6P (glucosamine-6-phosphate [3]) [s⁻¹] | self-cleavage kobs at 2500 uM GlcN6P (glucosamine-6-phosphate [4]) [s⁻¹] | self-cleavage kobs at 10000 uM GlcN6P (glucosamine-6-phosphate [5]) [s⁻¹]
22 | A42U C50U | < 1e-05 | < 1e-05 | < 1e-05 | < 1e-05 | < 1e-05
23 | G41C C58G | < 1e-05 | < 1e-05 | < 1e-05 |  | < 1e-05
24 | A42C U57A | < 1e-05 |  | < 1e-05 | < 1e-05 | < 1e-05
25 | G44U U49G | < 1e-05 | < 1e-05 | < 1e-05 |  | 
26 | G44A A52C | < 1e-05 | < 1e-05 | < 1e-05 | < 1e-05 | < 1e-05
27 | G44A A52U | < 1e-05 | < 1e-05 | < 1e-05 |  | 
28 | G41C A48C | < 1e-05 |  | < 1e-05 | < 1e-05 | < 1e-05
29 | G41U G43C | < 1e-05 | < 1e-05 | < 1e-05 | < 1e-05 | 
30 | G44C A64G C70U | < 1e-05 |  | < 1e-05 | < 1e-05 | < 1e-05
31 | G41U U54A | 2.71e-05 ± 1.1e-05 | 0.000104 ± 1.6e-05 | 0.000174 ± 2.6e-05 | 0.000426 ± 7.7e-05 | 0.000144 ± 1.7e-05
32 | G41A G62U | < 1e-05 | < 1e-05 | < 1e-05 |  | < 1e-05
33 | G40U G41C A42G A52G U56G G60U | < 1e-05 |  | < 1e-05 | < 1e-05 | 
34 | G44U C68A | < 1e-05 | < 1e-05 | < 1e-05 |  | < 1e-05
35 | G41C A42G A53C G63A | < 1e-05 |  | < 1e-05 | < 1e-05 | 
36 | A42C U65G | < 1e-05 | < 1e-05 | < 1e-05 |  | 
37 | G44A A48C | < 1e-05 | < 1e-05 | < 1e-05 | < 1e-05 | 
38 | G41U C70G | 0.00157 ± 0.00018 | 0.00262 ± 0.00038 | 0.00612 ± 0.00092 | 0.00944 ± 0.0019 | 0.0513 ± 0.014
39 | U45A U69C | 0.000354 ± 5.9e-05 | 0.000781 ± 0.00033 | 0.000518 ± 0.00013 | 0.00166 ± 0.0005 | 0.00144 ± 0.00031
40 | G44C U55A | < 1e-05 | < 1e-05 | < 1e-05 |  | 
41 | G41A U49C C67U | < 1e-05 |  |  |  | 
42 | G44U U49C U57A | < 1e-05 |  | < 1e-05 |  | 

Source: the supplement of paper PMC7125110
